According to article PMC4227790:

Target: FLAG-tagged TRAP150 (thyroid hormone receptor-associated protein of 150 kDa), full length (UniProt Q9Y2W1)
Test: co-IP; anti-FLAG immunoprecipitation of FLAG-TRAP150 (full length or truncated) from lysate of transfected HEK293 cells (hypotonic buffer with 0.5% Triton X-100, brought to 150 mM NaCl); precipitates mock- or RNase A-treated; immunoblot of endogenous partners

Sequence of UniProt Q9Y2W1 (Q9Y2W1 2-955): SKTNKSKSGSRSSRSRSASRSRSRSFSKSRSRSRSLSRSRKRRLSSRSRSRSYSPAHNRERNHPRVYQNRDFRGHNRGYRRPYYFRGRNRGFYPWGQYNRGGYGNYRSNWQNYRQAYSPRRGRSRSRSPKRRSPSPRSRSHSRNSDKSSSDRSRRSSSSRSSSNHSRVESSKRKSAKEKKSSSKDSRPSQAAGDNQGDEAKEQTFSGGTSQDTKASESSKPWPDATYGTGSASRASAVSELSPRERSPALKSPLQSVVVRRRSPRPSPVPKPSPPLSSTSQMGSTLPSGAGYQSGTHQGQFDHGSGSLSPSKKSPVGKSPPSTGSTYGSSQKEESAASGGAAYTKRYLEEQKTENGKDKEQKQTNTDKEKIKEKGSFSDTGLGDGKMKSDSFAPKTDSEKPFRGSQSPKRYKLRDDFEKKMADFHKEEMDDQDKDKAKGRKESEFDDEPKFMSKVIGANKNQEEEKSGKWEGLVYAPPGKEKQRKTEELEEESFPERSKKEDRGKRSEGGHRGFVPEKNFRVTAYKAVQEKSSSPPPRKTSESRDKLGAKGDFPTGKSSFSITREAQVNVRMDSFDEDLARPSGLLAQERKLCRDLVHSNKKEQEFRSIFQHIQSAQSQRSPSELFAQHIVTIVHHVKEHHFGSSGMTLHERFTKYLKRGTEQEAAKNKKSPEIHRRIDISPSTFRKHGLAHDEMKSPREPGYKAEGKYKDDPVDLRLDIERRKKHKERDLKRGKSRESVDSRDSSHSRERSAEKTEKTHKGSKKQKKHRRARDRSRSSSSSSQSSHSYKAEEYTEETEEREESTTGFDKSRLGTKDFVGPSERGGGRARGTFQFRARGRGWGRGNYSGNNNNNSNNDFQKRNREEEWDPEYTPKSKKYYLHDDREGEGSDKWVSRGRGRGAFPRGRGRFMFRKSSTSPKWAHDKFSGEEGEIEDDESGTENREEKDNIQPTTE

B1: CPSF160 (natural protein)
chain: MYAVYKQAHPPTGLEFSMYCNFFNNSERNLVVAGTSQLYVYRLNRDAEALTKNDRSTEGKAHREKLELAASFSFFGNVMSMASVQLAGAKRDALLLSFKDAKLSVVEYDPGTHDLKTLSLHYFEEPELRDGFVQNVHTPRVRVDPDGRCAAMLVYGTRLVVLPFRRESLAEEHEGLVGEGQRSSFLPSYIIDVRALDEKLLNIIDLQFLHGYYEPTLLILFEPNQTWPGRVAVRQDTCSIVAISLNITQKVHPVIWSLTSLPFDCTQALAVPKPIGGVVVFAVNSLLYLNQSVPPYGVALNSLTTGTTAFPLRTQEGVRITLDCAQATFISYDKMVISLKGGEIYVLTLITDGMRSVRAFHFDKAAASVLTTSMVTMEPGYLFLGSRLGNSLLLKYTEKLQEPPASAVREAADKEEPPSKKKRVDATAGWSAAGKSVPQDEVDEIEVYGSEAQSGTQLATYSFEVCDSILNIGPCANAAVGEPAFLSEEFQNSPEPDLEIVVCSGHGKNGALSVLQKSIRPQVVTTFELPGCYDMWTVIAPVRKEEEDNPKGEGTEQEPSTTPEADDDGRRHGFLILSREDSTMILQTGQEIMELDTSGFATQGPTVFAGNIGDNRYIVQVSPLGIRLLEGVNQLHFIPVDLGAPIVQCAVADPYVVIMSAEGHVTMFLLKSDSYGGRHHRLALHKPPLHHQSKVITLCLYRDLSGMFTTESRLGGARDELGGRSGPEAEGLGSETSPTVDDEEEMLYGDSGSLFSPSKEEARRSSQPPADRDPAPFRAEPTHWCLLVRENGTMEIYQLPDWRLVFLVKNFPVGQRVLVDSSFGQPTTQGEARREEATRQGELPLVKEVLLVALGSRQSRPYLLVHVDQELLIYEAFPHDSQLGQGNLKVRFKKVPHNINFREKKPKPSKKKAEGGGAEEGAGARGRVARFRYFEDIYGYSGVFICGPSPHWLLVTGRGALRLHPMAIDGPVDSFAPFHNVNCPRGFLYFNRQGELRISVLPAYLSYDAPWPVRKIPLRCTAHYVAYHVESKVYAVATSTNTPCARIPRMTGEEKEFETIERDERYIHPQQEAFSIQLISPVSWEAIPNARIELQEWEHVTCMKTVSLRSEETVSGLKGYVAAGTCLMQGEEVTCRGRILIMDVIEVVPEPGQPLTKNKFKVLYEKEQKGPVTALCHCNGHLVSAIGQKIFLWSLRASELTGMAFIDTQLYIHQMISVKNFILAADVMKSISLLRYQEESKTLSLVSRDAKPLEVYSVDFMVDNAQLGFLVSDRDRNLMVYMYLPEAKESFGGMRLLRRADFHVGAHVNTFWRTPCRGATEGLSKKSVVWENKHITWFATLDGGIGLLLPMQEKTYRRLLMLQNALTTMLPHHAGLNPRAFRMLHVDRRTLQNAVRNVLDGELLNRYLYLSTMERSELAKKIGTTPDIILDDLLETDRVTAHF
- percent of CPSF160 co-precipitated: 10 to 20%
